For data set [1], the system named is Saccharomyces cerevisiae. Nature of the data set: protein stability index of tFT-peptide fusion (C-terminal peptide) (PSI (0-1 scale)); higher = more stable (slower turnover). The settings on record: genetic background: wild type; temperature: 30 C.
In data set [2] the test system is Saccharomyces cerevisiae. The description is as above. The method, then:
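MPS profiling in S. cerevisiae of the tFT-X12 degron library: putative degron peptides plus stable controls, 12 aa, fused to the C-terminus of a sfGFP-mCherry timer. Cells are FACS-sorted into 8 mCherry/sfGFP bins and deep-sequenced. PSI runs from 0 (unstable) to 1 (stable). Backgrounds are wild type, das1Δ and doa10Δ at 30 °C, and wild type, das1Δ, cdc34-1 and cdc53-1 at 37 °C; 2-3 technical replicates each.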

Where [3] appears, read: genetic background: cdc34-1, temperature: 37 C.
[4] abbreviates: genetic background: cdc53-1, temperature: 37 C.
[5] abbreviates: genetic background: das1 deletion, temperature: 30 C.
[6] abbreviates: genetic background: das1 deletion, temperature: 37 C.
Where [7] appears, read: genetic background: doa10 deletion, temperature: 30 C.
Where [8] appears, read: genetic background: wild type, temperature: 30 C.
Where [9] appears, read: genetic background: wild type, temperature: 37 C.

± gives the standard deviation of the averaged measurements.
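Further: PSI is a weighted mean of sequencing reads over stability bins, variants kept only with over 10 reads, mCherry proximal and sfGFP distal, peptide attached via GGGS linker.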

With FGVECDLCLFCC, the protein stability index in data set [1] turned out to be 0.376 ± 0.018; in data set [2] (setting [3]), 0.617 ± 0.07; in data set [2] (setting [4]) it was 0.6837 ± 0.0031; in data set [2] (setting [5]), 0.572 ± 0.0088; in data set [2] (setting [6]) it was 0.692 ± 0.03; in data set [2] (setting [7]), 0.2392 ± 0.0022. Besides, the protein stability index came out at 0.257 ± 0.014 in data set [2] (setting [8]) and 0.46 ± 0.015 in data set [2] (setting [9]).
FGVVRVSIPVGV: the protein stability index stood at 0.368 ± 0.012 in data set [1]; 0.211 ± 0.024 in data set [2] (setting [3]); 0.203 ± 0.02 in data set [2] (setting [4]); 0.227 ± 0.038 in data set [2] (setting [5]); 0.3584 ± 0.0023 in data set [2] (setting [6]); 0.184 ± 0.005 in data set [2] (setting [7]). The results for the protein stability index in data set [2] (setting [8]) and in data set [2] (setting [9]) were 0.233 ± 0.024 and 0.316 ± 0.007, respectively.
With FIFCLSCGVWGG, the protein stability index in data set [1] stood at 0.414 ± 0.02; in data set [2] (setting [3]) it was 0.5052 ± 0.0007; in data set [2] (setting [4]), 0.583 ± 0.027; in data set [2] (setting [5]) it was 0.478 ± 0.039; in data set [2] (setting [6]), 0.593 ± 0.023; in data set [2] (setting [7]), 0.49 ± 0.026. The values for the protein stability index in data set [2] (setting [8]) and in data set [2] (setting [9]) were 0.466 ± 0.012 and 0.5582 ± 0.0053, respectively.
Turning to FILLFGFSHWVW, the protein stability index in data set [1] stood at 0.4316 ± 0.0023; in data set [2] (setting [3]), 0.449 ± 0.033; in data set [2] (setting [4]), 0.523 ± 0.023; in data set [2] (setting [5]), 0.375 ± 0.028; in data set [2] (setting [6]) it was 0.5333 ± 0.0017; in data set [2] (setting [7]), 0.364 ± 0.019. In addition, the protein stability index came to 0.37 ± 0.03 in data set [2] (setting [8]) and 0.476 ± 0.036 in data set [2] (setting [9]).
As to FILLTLVFGCAS, the protein stability index amounted to 0.309 ± 0.025 in data set [1]; 0.188 ± 0.0054 in data set [2] (setting [3]); 0.313 ± 0.025 in data set [2] (setting [4]); 0.228 ± 0.02 in data set [2] (setting [5]); 0.424 ± 0.0066 in data set [2] (setting [6]); 0.196 ± 0.0089 in data set [2] (setting [7]). In addition, the protein stability index in data set [2] (setting [8]) was 0.22 ± 0.035; in data set [2] (setting [9]) it was 0.375 ± 0.0071.
FLAFLEPRVCCA: the protein stability index in data set [1] was determined as 0.343 ± 0.013; in data set [2] (setting [3]), 0.23 ± 0.037; in data set [2] (setting [4]), 0.231 ± 0.036; in data set [2] (setting [5]), 0.246 ± 0.019; in data set [2] (setting [6]), 0.354 ± 0.0058; in data set [2] (setting [7]), 0.21 ± 0.0091. Also, the figures for the protein stability index in data set [2] (setting [8]) and in data set [2] (setting [9]) were 0.228 ± 0.031 and 0.33 ± 0.029, respectively.
Regarding FLAFSYIRLLFF, the protein stability index in data set [1] amounted to 0.237 ± 0.012; in data set [2] (setting [3]) it was 0.468 ± 0.05; in data set [2] (setting [4]), 0.463 ± 0.019; in data set [2] (setting [5]) it was 0.454 ± 0.026; in data set [2] (setting [6]), 0.6128 ± 0.0054; in data set [2] (setting [7]) it was 0.135 ± 0.017. In addition, the protein stability index was found to be 0.122 ± 0.023 in data set [2] (setting [8]) and 0.178 ± 0.031 in data set [2] (setting [9]).
For FLCWLSFIPLLS, the protein stability index came to 0.38 ± 0.02 in data set [1]; 0.203 ± 0.0093 in data set [2] (setting [3]); 0.164 ± 0.007 in data set [2] (setting [4]); 0.293 ± 0.034 in data set [2] (setting [5]); 0.366 ± 0.0095 in data set [2] (setting [6]); 0.418 ± 0.019 in data set [2] (setting [7]). Besides, the protein stability index in data set [2] (setting [8]) is 0.256 ± 0.017; in data set [2] (setting [9]), 0.32 ± 0.015.
As for FLFFCGWVSLFG, the protein stability index in data set [1] worked out at 0.424 ± 0.024; in data set [2] (setting [3]), 0.408 ± 0.024; in data set [2] (setting [4]), 0.4636 ± 0.0024; in data set [2] (setting [5]), 0.394 ± 0.033; in data set [2] (setting [6]), 0.4966 ± 0.0014; in data set [2] (setting [7]) it was 0.333 ± 0.0056. For the same sequence, the protein stability index in data set [2] (setting [8]) is 0.364 ± 0.023; in data set [2] (setting [9]) it was 0.479 ± 0.025.
As for FLFFMGVGVVLY, the protein stability index in data set [1] worked out at 0.295 ± 0.013; in data set [2] (setting [3]), 0.285 ± 0.032; in data set [2] (setting [4]), 0.382 ± 0.029; in data set [2] (setting [5]), 0.314 ± 0.025; in data set [2] (setting [6]) it was 0.452 ± 0.023; in data set [2] (setting [7]) it was 0.35 ± 0.039. Besides, the protein stability index in data set [2] (setting [8]) came to 0.325 ± 0.025; in data set [2] (setting [9]), 0.425 ± 0.0071.
Turning to FLFIFFFFLISF, the protein stability index turned out to be 0.284 ± 0.018 in data set [1]; 0.208 ± 0.018 in data set [2] (setting [3]); 0.1806 ± 0.00038 in data set [2] (setting [4]); 0.256 ± 0.02 in data set [2] (setting [5]); 0.311 ± 0.027 in data set [2] (setting [6]); 0.344 ± 0.0055 in data set [2] (setting [7]). Also, the protein stability index is 0.242 ± 0.021 in data set [2] (setting [8]) and 0.295 ± 0.011 in data set [2] (setting [9]).
As for FLFLFLFPFSLI, the protein stability index in data set [1] is 0.431 ± 0.0054; in data set [2] (setting [3]), 0.525 ± 0.047; in data set [2] (setting [4]) it was 0.571 ± 0.0084; in data set [2] (setting [5]), 0.476 ± 0.016; in data set [2] (setting [6]) it was 0.567 ± 0.009; in data set [2] (setting [7]) it was 0.393 ± 0.0097. Further, the figures for the protein stability index in data set [2] (setting [8]) and in data set [2] (setting [9]) were 0.386 ± 0.0079 and 0.4997 ± 0.0009, respectively.
On to FLIFGMVDFAVV, for which the protein stability index was 0.331 ± 0.018 in data set [1]; 0.247 ± 0.035 in data set [2] (setting [3]); 0.3554 ± 0.0029 in data set [2] (setting [4]); 0.231 ± 0.04 in data set [2] (setting [5]); 0.3883 ± 0.0012 in data set [2] (setting [6]); 0.202 ± 0.0019 in data set [2] (setting [7]). Also, the protein stability index in data set [2] (setting [8]) amounted to 0.226 ± 0.019; in data set [2] (setting [9]), 0.387 ± 0.035.
For FLIFVVIGGVGL, the protein stability index stood at 0.2837 ± 0.0028 in data set [1]; 0.259 ± 0.0043 in data set [2] (setting [3]); 0.395 ± 0.016 in data set [2] (setting [4]); 0.281 ± 0.027 in data set [2] (setting [5]); 0.466 ± 0.013 in data set [2] (setting [6]); 0.2268 ± 0.0012 in data set [2] (setting [7]). The protein stability index stood at 0.276 ± 0.023 in data set [2] (setting [8]) and 0.435 ± 0.057 in data set [2] (setting [9]).
FLLELRFTCSYS: the protein stability index in data set [1] came to 0.431 ± 0.013; in data set [2] (setting [3]), 0.383 ± 0.026; in data set [2] (setting [4]), 0.454 ± 0.021; in data set [2] (setting [5]) it was 0.407 ± 0.014; in data set [2] (setting [6]) it was 0.4415 ± 0.00066; in data set [2] (setting [7]) it was 0.403 ± 0.013. The protein stability index was 0.406 ± 0.023 in data set [2] (setting [8]) and 0.4158 ± 0.0028 in data set [2] (setting [9]).

The values are drawn from the supplement of paper PMC10724198.
